Patent publication US20040096912A1
pKd: −log10 of the molar value.

Molecular target: µ opioid receptors in brain membranes of heterozygous Cre/S196A mice
Experiment: [^3H]DAMGO saturation binding, Scatchard analysis, brain membranes of heterozygous Cre/S196A mice

- pKd: 8.61
Substance: [^3H]DAMGO ([D-Ala^1.N-McPhe^4.Gly^5-ol]enkephalin) (peptide)
